Seven molecules from patent publication US7226791B2, “Polynucleotides encoding novel guanylate binding proteins (GBP's)” (Bristol-Myers Squibb Company, priority 2003, dated 2007) can be followed below.

Experiment [1] relates to MCP-1. Kind of experiment: TNFα-induced MCP-1 expression in human umbilical vein endothelial cells, ELISA. The format is cell-based. As to conditions: HUVECs, 100 nM siRNA duplexes, 6 hours 10 ng/ml TNFα; FIG. 50B. The method, then: (§1) In some experiments, human umbilical vein endothelial cells (HUVECs, Clonetics Corp., San Diego, Calif., USA) were transfected using lipofectamine 2000 with 100 nM siRNA duplexes. Cells were cultured overnight, and then stimulated for 6 hours with 10 ng/ml TNFα. Supernatants were analyzed for MCP-1 and IL-8 levels by ELISA (Pharmingen, San Diego, Calif., USA). Cytokine levels were corrected for cell number using the CELL TITER kit (Promega).
Background: In an ELISA, binding on a coated surface is turned into a signal by an enzyme label.

The test system of experiment [2] is GBP-1. Kind of experiment: siRNA knockdown of GBP-1 protein expression in Cos-7 cells, myc western blot. The class given is cell-based. Particulars: Cos-7 cells co-transfected with GBP-1 expression vector, 40 nM siRNA duplex; FIG. 50A. The method, then: To test for knockdown of protein expression using siRNAs, Cos-7 cells were transfected as described herein with expression vectors encoding either GBP-1 or GBP-2 in the presence and absence of 40 nM siRNA duplex specific for either GBP-1 (“1–3”, […], (SEQ ID NO:79), Qiagen, Inc.) or GBP-2 (“582”, […] (SEQ ID NO:80), Sequitur Inc., Natick, Mass.). Approximately 18 hours following transfection, cells were harvested using trypsin, and lysed in RIPA buffer as described previously. Lysates were electrophoresed through 4–20% tris-glycine gels, transferred to nitrocellulose, blocked overnight with 5% non-fat dry milk and 0.3% BSA in Tris-buffered saline, and probed with a mouse monoclonal antibody specific for the myc epitope tag.
A general note: Immunoblotting shows a protein as a band on a membrane.

For experiment [3], the system named is IL-8. In words: TNFα-induced IL-8 secretion in human umbilical vein endothelial cells, ELISA. The format is cell-based. As to conditions: HUVECs, 100 nM siRNA duplexes, 6 hours 10 ng/ml TNFα. As for the experimental part:
as §1

A short description of experiment [4]: Guanine nucleotide binding: Cos-7 lysates on agarose coated with GTP, myc western blot. Particulars: myc-tagged protein expressed in Cos-7 cells; FIG. 49. As for the experimental part:
(§2) Genes encoding different GBP family members were cloned into the vector pcDNA3.1mychis (Invitrogen) for expression in mammalian cells. Cos-7 cells were transfected with 5 μg of DNA per group using lipofectamine 2000 (Invitrogen) according to manufacturer's instructions. Approximately 18 hours after transfection, the cells were harvested using trypsin and lysed in RIPA buffer (10 mM sodium phosphate pH 7.2, 0.25 M sodium chloride, 0.1% SDS, 1% NP40, 1% sodium deoxycholate, 2 mM EDTA, protease inhibitor cocktail). An aliquot of the lysate was reserved for the whole cell lysate sample. The remainder was divided in thirds, and incubated for three hours at 4° C. with agarose coated with either GTP, GDP, or GMP (Sigma Chemical Company). The beads were pelleted, washed with buffer (0.1% NP40, 150 mM NaCl, 50 mM Tris pH7.5), and resuspended in SDS sample buffer. Samples were electrophoresed through 4–20% tris-glycine gels, transferred to nitrocellulose, blocked overnight with 5% non-fat dry milk and 0.3% BSA in Tris-buffered saline, and probed with a mouse monoclonal antibody specific for the myc epitope tag (Invitrogen).

Experiment [5] is described as follows: Guanine nucleotide binding: Cos-7 lysates on agarose coated with GDP, myc western blot. Particulars: myc-tagged protein expressed in Cos-7 cells; FIG. 49. The method, then: as §2
A short description of experiment [6]: Guanine nucleotide binding: Cos-7 lysates on agarose coated with GMP, myc western blot. Particulars: myc-tagged protein expressed in Cos-7 cells; FIG. 49. The method, then:
as §2

For the molecule “GCUCGAGAAACUACAAGAUTT, (SEQ ID NO:79) [1–3]”, the “inhibition of TNFα-induced MCP-1 expression” value in experiment [1] was determined as 70%. Moreover, the “knockdown of GBP-1 protein expression” value in experiment [2] was “specific knockdown”. Besides, the “inhibition of IL-8 secretion” value in experiment [3] is reported as “failed to inhibit”.

B1: GBP-5: known guanylate binding protein family member, myc-tagged, expressed in Cos-7 cells (protein, UniProt Q96PP8 1-583, looked up)
Guanylate-binding protein 5: MALEIHMSDPMCLIENFNEQLKVNQEALEILSAITQPVVVVAIVGLYRTGKSYLMNKLAGKNKGFSVASTVQSHTKGIWIWCVPHPNWPNHTLVLLDTEGLGDVEKADNKNDIQIFALALLLSSTFVYNTVNKIDQGAIDLLHNVTELTDLLKARNSPDLDRVEDPADSASFFPDLVWTLRDFCLGLEIDGQLVTPDEYLENSLRPKQGSDQRVQNFNLPRLCIQKFFPKKKCFIFDLPAHQKKLAQLETLPDDELEPEFVQQVTEFCSYIFSHSMTKTLPGGIMVNGSRLKNLVLTYVNAISSGDLPCIENAVLALAQRENSAAVQKAIAHYDQQMGQKVQLPMETLQELLDLHRTSEREAIEVFMKNSFKDVDQSFQKELETLLDAKQNDICKRNLEASSDYCSALLKDIFGPLEEAVKQGIYSKPGGHNLFIQKTEELKAKYYREPRKGIQAEEVLQKYLKSKESVSHAILQTDQALTETEKKKKEAQVKAEAEKAEAQRLAAIQRQNEQMMQERERLHQEQVRQMEIAKQNWLAEQQKMQEQQMQEQAAQLSTTFQAQNRSLLSELQHAQRTVNNDDPC
modifications: myc tag
B1: the “binding to GTP agarose beads” value in experiment [4] was “weakly”. In addition, the “binding to GDP agarose beads” value in experiment [5] is on record as “bound well”. In addition, the “binding to GMP agarose beads” value in experiment [6] is listed as “bound well”.

B2: 4843—1: human guanylate binding protein HGBPBMY2, AA SEQ ID NO:5 (protein, listed as Homo sapiens)
chain: MESGPKMLAPVCLVENNNEQLLVNQQAIQILEKISQPVVVAIVGLYRTGKSYLMNHLAGQNHGFPLGSTVQSETKGIWMWCVPHPSKPNHTLVLLDTEGLGDVEKGDPKNDSWIFALAVLLCSTFVYNSMSTINHQALEQLHYVTELTELIKAKSSPRPDGVEDSTEFVSFFPDFLWTVRDFTLELKLNGHPITEDEYLENALKLIQGNNPRVQTSNFPRECIRRFLPKRKCFVFDRPTNDKDLLANIEKVSEKQLDPKFQEQTNIFCSYIFTHARTKTLREGITVTGNRLGTLAVTYVEAINSGAVPCLENAVITLAQRENSAAVQRASDYYSQQMAQRVKFPTDTLQELLDVHAACEREAIAIFMEHSFKDENQEFQKKFMETTMNKKGDFLLQNEESSVQYCQAKLNELSKGLMESISAGSFSVPGGHKLYMETKERIEQDYWQVPRKGVKAKEVFQRFLESQMVIEESILQSDKALTDREKAVAVDRAKKEAAEKEQELLKQKLQEQQQQMEAQVKSRKENIAQLKEKLQMEREHLLREQIMMLEHTQKVQNDWLHEGFKKKYEEMNAEISQFKRMIDTTKNDDTPWIARTLDNLADELTAILSAPAKLIGHGVKGVSSLFKKHKLPFKGGRADPAFLYKVVDLEGPRFEQKLISEEDLNMHTGHHHHHH
Take B2: the “binding to GTP agarose beads” value in experiment [4] was “did not bind”. Also, the “binding to GDP agarose beads” value in experiment [5] is “did not bind”. In addition, the “binding to GMP agarose beads” value in experiment [6] is on record as “did not bind”.

B3: GBP-2: known guanylate binding protein family member, myc-tagged, expressed in Cos-7 cells (protein, UniProt P32456 1-588, looked up)
Guanylate-binding protein 2: MAPEINLPGPMSLIDNTKGQLVVNPEALKILSAITQPVVVVAIVGLYRTGKSYLMNKLAGKKNGFSLGSTVKSHTKGIWMWCVPHPKKPEHTLVLLDTEGLGDIEKGDNENDSWIFALAILLSSTFVYNSMGTINQQAMDQLHYVTELTDRIKANSSPGNNSVDDSADFVSFFPAFVWTLRDFTLELEVDGEPITADDYLELSLKLRKGTDKKSKSFNDPRLCIRKFFPKRKCFVFDWPAPKKYLAHLEQLKEEELNPDFIEQVAEFCSYILSHSNVKTLSGGIPVNGPRLESLVLTYVNAISSGDLPCMENAVLALAQIENSAAVEKAIAHYEQQMGQKVQLPTETLQELLDLHRDSEREAIEVFMKNSFKDVDQMFQRKLGAQLEARRDDFCKQNSKASSDCCMALLQDIFGPLEEDVKQGTFSKPGGYRLFTQKLQELKNKYYQVPRKGIQAKEVLKKYLESKEDVADALLQTDQSLSEKEKAIEVERIKAESAEAAKKMLEEIQKKNEEMMEQKEKSYQEHVKQLTEKMERDRAQLMAEQEKTLALKLQEQERLLKEGFENESKRLQKDIWDIQMRSKSLEPIC
modifications: myc tag
Regarding B3, in experiment [4], the “binding to GTP agarose beads” value is “bound well”. Besides, in experiment [5], the “binding to GDP agarose beads” value is on record as “bound well”. The “binding to GMP agarose beads” value in experiment [6] is given as “bound well”.

B4: AK096141: human guanylate binding protein HGBPBMY1, AA SEQ ID NO:3 (protein, listed as Homo sapiens)
chain: MASEIHMPGPVCLIENTKGHLVVNSEALEILSAITQPVVVVAIVGLYRTGKSYLMNKLAGKNKGFPLGCTVKSETKGIWMWCVPHPSKPNHTLILLDTEGLGDMEKSDPKSDSWIFALAVLLSSSFVYNSMGTINHQALEQLHYVTELTELIRAKSCPRPDEVEDSSEFVSFFPDFIWTVRDFTLELKLDGHPITEDEYLENALKLISGKNPQIQNSNKPREWIRHFFPKQKCFVFDRPINDKKLLLHVEEVREDQLDSNFQMQSENFCSYIFTHAKTKTLREGILVTGNRLGMLVETYLDAINSGATPCLENAMAVLAQCENSAAVQRAANHYSQQMAQQVRFPTDTLQELLDVHAVCEREAIAVFMEYSFKDKSQEFQKKLVDTMEKKKEDFVLQNEEASAKYCQAELKRLSELLTESISRGTFFVPGGHNIYLEAKKKIEQDYTLVPRKGVKADEVLQSFLQSQVVIEESILQSDKALTAGEKAIAAKQAKKEAAEKEQELLRQKQKEQQQMMEAQERSFQENIAQLKKKMERERENYMRELRKMLSHKMKVLEELLTEGFKEIFESLNEEINRLKEQIEAAENEEPSVFSQILDVAGSIFIAALPGAAKLVDLGMKILSSLCNRLRNPGKKIIS
Consider B4, for which the “binding to GTP agarose beads” value in experiment [4] is on record as “not at all”. Also, the “binding to GDP agarose beads” value in experiment [5] is “bound weakly”. The “binding to GMP agarose beads” value in experiment [6] is “bound weakly”.

B5: FLJ10961: human guanylate binding protein HGBPBMY4, AA SEQ ID NO:9 (protein, listed as Homo sapiens)
chain: MAPEIHMTGPMCLIENTNGELVANPEALKILSAITQPVVVVAIVGLYRTGKSYLMNKLAGKNKGFSLGSTVKSHTKGIWMWCVPHPKKPEHTLVLLDTEGLGDVKKGDNQNDSWIFTLAVLLSSTLVYNSMGTINQQAMDQLYYVTELTHRIRSKSSPDENENEDSADFVSFFPDFVWTLRDFSLDLEADGQPLTPDEYLEYSLKLTQGNRKLAQLEKLQDEELDPEFVQQVADFCSYIFSNSKTKTLSGGIKVNGPCLESLVLTYINAISRGDLPCMENAVLALAQIENSAAVQKAIAHYDQQMGQKVQLPAETLQELLDLHRVSEREATEVYMKNSFKDVDHLFQKKLAAQLDKKRDDFCKQNQEASSDRCSALLQVIFSPLEEEVKAGIYSKPGGYCLFIQKLQDLEKKYYEEPRKGIQAEEILQTYLKSKESVTDAILQTDQILTEKEKEIEVECVKAESAQASAKMVEEMQIKYQQMMEEKEKSYQEHVKQLTEKMERERAQLLEEQEKTLTSKLQEQARVLKERCQGESTQLQNEIQKLQKTLKKKTKRYMSHKLKI
In the case of B5, in experiment [4], the “binding to GTP agarose beads” value is reported as “weakly”. The “binding to GDP agarose beads” value in experiment [5] is listed as “bound well”. Moreover, the “binding to GMP agarose beads” value in experiment [6] is on record as “bound well”.

B6: GBP-1: known guanylate binding protein family member, myc-tagged, expressed in Cos-7 cells (protein, UniProt P32455 1-589, looked up)
Guanylate-binding protein 1: MASEIHMTGPMCLIENTNGRLMANPEALKILSAITQPMVVVAIVGLYRTGKSYLMNKLAGKKKGFSLGSTVQSHTKGIWMWCVPHPKKPGHILVLLDTEGLGDVEKGDNQNDSWIFALAVLLSSTFVYNSIGTINQQAMDQLYYVTELTHRIRSKSSPDENENEVEDSADFVSFFPDFVWTLRDFSLDLEADGQPLTPDEYLTYSLKLKKGTSQKDETFNLPRLCIRKFFPKKKCFVFDRPVHRRKLAQLEKLQDEELDPEFVQQVADFCSYIFSNSKTKTLSGGIQVNGPRLESLVLTYVNAISSGDLPCMENAVLALAQIENSAAVQKAIAHYEQQMGQKVQLPTETLQELLDLHRDSEREAIEVFIRSSFKDVDHLFQKELAAQLEKKRDDFCKQNQEASSDRCSALLQVIFSPLEEEVKAGIYSKPGGYRLFVQKLQDLKKKYYEEPRKGIQAEEILQTYLKSKESMTDAILQTDQTLTEKEKEIEVERVKAESAQASAKMLQEMQRKNEQMMEQKERSYQEHLKQLTEKMENDRVQLLKEQERTLALKLQEQEQLLKEGFQKESRIMKNEIQDLQTKMRRRKAC
modifications: myc tag
B6: in experiment [4], the “binding to GTP agarose beads” value is listed as “bound well”. In experiment [5], the “binding to GDP agarose beads” value is “bound well”. Further, the “binding to GMP agarose beads” value in experiment [6] was “bound well”.
